Measurements reported in IntAct's records for PubMed 19913487.

B1: ATP-dependent RNA helicase DDX3X (Homo sapiens), O00571 (parent)
chain: MSHVAVENALGLDQQFAGLDLNSSDNQSGGSTASKGRYIPPHLRNREATKGFYDKDSSGWSSSKDKDAYSSFGSRSDSRGKSSFFSDRGSGSRGRFDDRGRSDYDGIGSRGDRSGFGKFERGGNSRWCDKSDEDDWSKPLPPSERLEQELFSGGNTGINFEKYDDIPVEATGNNCPPHIESFSDVEMGEIIMGNIELTRYTRPTPVQKHAIPIIKEKRDLMACAQTGSGKTAAFLLPILSQIYSDGPGEALRAMKENGRYGRRKQYPISLVLAPTRELAVQIYEEARKFSYRSRVRPCVVYGGADIGQQIRDLERGCHLLVATPGRLVDMMERGKIGLDFCKYLVLDEADRMLDMGFEPQIRRIVEQDTMPPKGVRHTMMFSATFPKEIQMLARDFLDEYIFLAVGRVGSTSENITQKVVWVEESDKRSFLLDLLNATGKDSLTLVFVETKKGADSLEDFLYHEGYACTSIHGDRSQRDREEALHQFRSGKSPILVATAVAARGLDISNVKHVINFDLPSDIEEYVHRIGRTGRVGNLGLATSFFNERNINITKDLLDLLVEAKQEVPSWLENMAYEHHYKGSSRGRSKSSRFSGGFGARDYRQSSGASSSSFSSSRASSSRSGGGGHGSSRGFGGGGYGGFYNSDGYGGNYNSQGVDWWGN

Variants of: B1
Conditions: with pg044_vaccw OPG044, P68466

Variant | effect of a mutation on the interaction
F84A;F85A | disrupting interaction
